Results: article PMC2720833

Target: GST-Cullin5 (NTD), N-terminal domain of murine cullin5 (Met1-Leu385) with V341R and L345D (murine) (UniProt Q9D5V5)
Experiment: SPR

GST-Cullin5 (NTD), N-terminal domain of murine cullin5 (Met1-Leu385) with V341R and L345D (murine), sequence (Q9D5V5 1-385 V341R/L345D): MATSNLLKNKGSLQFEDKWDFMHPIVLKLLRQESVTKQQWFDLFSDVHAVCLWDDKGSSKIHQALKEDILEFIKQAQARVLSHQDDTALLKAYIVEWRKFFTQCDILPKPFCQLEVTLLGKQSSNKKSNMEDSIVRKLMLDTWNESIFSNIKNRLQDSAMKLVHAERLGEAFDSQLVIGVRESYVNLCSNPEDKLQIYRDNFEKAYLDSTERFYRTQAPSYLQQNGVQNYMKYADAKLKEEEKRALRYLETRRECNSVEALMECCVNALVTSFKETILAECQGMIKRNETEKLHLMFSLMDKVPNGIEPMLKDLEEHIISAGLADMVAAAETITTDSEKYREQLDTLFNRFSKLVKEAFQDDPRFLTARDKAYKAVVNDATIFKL

KD by Biacore relative to KD by ITC (fold): 4 fold
half-life of the complex: 10 s
Substance: SOCS3 box/elonginBC ternary complex (from UniProt Q15370 1-118; P83940 17-112)
